Several values for one entry are separate records, joined by “and”; a condition that tells them apart may be missing. Equal values may be shown once.
T1: IL-18 receptor (IL-18Rαβ) on cells (UniProt Q13478 19-541; O95256 20-599, limits assumed)
T1 sequence (looked up) 1: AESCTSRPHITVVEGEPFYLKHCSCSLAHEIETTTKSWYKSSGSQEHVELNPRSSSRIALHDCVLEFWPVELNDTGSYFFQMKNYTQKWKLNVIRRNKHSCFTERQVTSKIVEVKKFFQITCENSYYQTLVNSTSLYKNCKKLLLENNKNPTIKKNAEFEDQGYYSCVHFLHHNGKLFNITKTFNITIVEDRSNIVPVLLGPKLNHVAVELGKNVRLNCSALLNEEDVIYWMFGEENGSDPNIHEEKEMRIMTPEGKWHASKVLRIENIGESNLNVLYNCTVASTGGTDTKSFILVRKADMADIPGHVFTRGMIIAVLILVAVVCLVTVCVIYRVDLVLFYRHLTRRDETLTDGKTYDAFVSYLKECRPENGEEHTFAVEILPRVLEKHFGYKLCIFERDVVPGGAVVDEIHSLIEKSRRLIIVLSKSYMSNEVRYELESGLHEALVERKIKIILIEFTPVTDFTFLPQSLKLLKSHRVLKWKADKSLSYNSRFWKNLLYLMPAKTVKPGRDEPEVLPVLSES
T1 sequence (looked up) 2: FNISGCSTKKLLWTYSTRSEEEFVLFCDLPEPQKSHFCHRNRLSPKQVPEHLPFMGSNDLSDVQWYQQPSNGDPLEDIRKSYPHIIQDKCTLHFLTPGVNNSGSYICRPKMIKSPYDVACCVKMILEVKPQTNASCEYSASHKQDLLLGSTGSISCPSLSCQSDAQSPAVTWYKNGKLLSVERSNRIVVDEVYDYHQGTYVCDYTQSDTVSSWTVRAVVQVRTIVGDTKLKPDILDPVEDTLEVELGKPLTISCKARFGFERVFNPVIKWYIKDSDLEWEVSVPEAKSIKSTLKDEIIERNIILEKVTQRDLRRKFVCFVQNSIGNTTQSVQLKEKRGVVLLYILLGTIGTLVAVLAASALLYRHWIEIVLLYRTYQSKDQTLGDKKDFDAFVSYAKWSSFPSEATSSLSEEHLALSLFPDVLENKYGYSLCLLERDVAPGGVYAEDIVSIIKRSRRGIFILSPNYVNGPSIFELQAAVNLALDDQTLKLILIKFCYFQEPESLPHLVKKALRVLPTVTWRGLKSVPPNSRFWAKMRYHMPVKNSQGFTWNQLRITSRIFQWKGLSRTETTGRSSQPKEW

B1: IL-18 polypeptide SEQ ID NO: 42 (E06K, K53A, S55A, T63A) (ligand)
chain: YFGKLKSKLSVIRNLNDQVLFIDQGNRPLFEDMTDSDCRDNAPRTIFIISMYADAQPRGMAVAISVKCEKISTLSCENKIISFKEMNPPDNIKDTKSDIIFFQRSVPGHDNKMQFESSSYEGYFLACEKERDLFKLILKKEDELGDRSIMFTVQNED
B2: IL-18 polypeptide SEQ ID NO: 50 (E06K, K53A, T63A) (ligand)
chain: YFGKLKSKLSVIRNLNDQVLFIDQGNRPLFEDMTDSDCRDNAPRTIFIISMYADSQPRGMAVAISVKCEKISTLSCENKIISFKEMNPPDNIKDTKSDIIFFQRSVPGHDNKMQFESSSYEGYFLACEKERDLFKLILKKEDELGDRSIMFTVQNED
B3: IL-18 polypeptide SEQ ID NO: 54 (E06K, K53A, C38S, C68S, C76S, C127S, K70C) (ligand)
chain: YFGKLKSKLSVIRNLNDQVLFIDQGNRPLFEDMTDSDSRDNAPRTIFIISMYADSQPRGMAVTISVKSECISTLSSENKIISFKEMNPPDNIKDTKSDIIFFQRSVPGHDNKMQFESSSYEGYFLASEKERDLFKLILKKEDELGDRSIMFTVQNED
B4: IL-18 polypeptide SEQ ID NO: 5 (E6K, V11I, C38A, K53A, T63A, C68A, C76A, M86C, C127A) (ligand)
chain: YFGKLKSKLSIIRNLNDQVLFIDQGNRPLFEDMTDSDARDNAPRTIFIISMYADSQPRGMAVAISVKAEKISTLSAENKIISFKECNPPDNIKDTKSDIIFFQRSVPGHDNKMQFESSSYEGYFLAAEKERDLFKLILKKEDELGDRSIMFTVQNED
B5: IL-18 polypeptide SEQ ID NO: 9 (E6K, C38A, K53A, C68A, D98C) (ligand)
chain: YFGKLKSKLSVIRNLNDQVLFIDQGNRPLFEDMTDSDARDNAPRTIFIISMYADSQPRGMAVTISVKAEKISTLSCENKIISFKEMNPPDNIKDTKSCIIFFQRSVPGHDNKMQFESSSYEGYFLACEKERDLFKLILKKEDELGDRSIMFTVQNED
B6: IL-18 polypeptide SEQ ID NO: 4 (E6K, C38A, K53A, C68A, M86C) (ligand)
chain: YFGKLKSKLSVIRNLNDQVLFIDQGNRPLFEDMTDSDARDNAPRTIFIISMYADSQPRGMAVTISVKAEKISTLSCENKIISFKECNPPDNIKDTKSDIIFFQRSVPGHDNKMQFESSSYEGYFLACEKERDLFKLILKKEDELGDRSIMFTVQNED
B7: IL-18 polypeptide SEQ ID NO: 62 (E6K, C38A, K53A, C127A) (ligand)
chain: YFGKLKSKLSVIRNLNDQVLFIDQGNRPLFEDMTDSDARDNAPRTIFIISMYADSQPRGMAVTISVKCEKISTLSCENKIISFKEMNPPDNIKDTKSDIIFFQRSVPGHDNKMQFESSSYEGYFLAAEKERDLFKLILKKEDELGDRSIMFTVQNED
B8: IL-18 polypeptide SEQ ID NO: 60 (E6K, C38Q, K53A) (ligand)
chain: YFGKLKSKLSVIRNLNDQVLFIDQGNRPLFEDMTDSDQRDNAPRTIFIISMYADSQPRGMAVTISVKCEKISTLSCENKIISFKEMNPPDNIKDTKSDIIFFQRSVPGHDNKMQFESSSYEGYFLACEKERDLFKLILKKEDELGDRSIMFTVQNED
B9: IL-18 polypeptide SEQ ID NO: 59 (E6K, C38A, K53A) (ligand)
chain: YFGKLKSKLSVIRNLNDQVLFIDQGNRPLFEDMTDSDARDNAPRTIFIISMYADSQPRGMAVTISVKCEKISTLSCENKIISFKEMNPPDNIKDTKSDIIFFQRSVPGHDNKMQFESSSYEGYFLACEKERDLFKLILKKEDELGDRSIMFTVQNED
B10: IL-18 polypeptide SEQ ID NO: 57 (E6K, C38S, K53A) (ligand)
chain: YFGKLKSKLSVIRNLNDQVLFIDQGNRPLFEDMTDSDSRDNAPRTIFIISMYADSQPRGMAVTISVKCEKISTLSCENKIISFKEMNPPDNIKDTKSDIIFFQRSVPGHDNKMQFESSSYEGYFLACEKERDLFKLILKKEDELGDRSIMFTVQNED
B11: C143 (V11I, C38A, K53A, C76A, C127A) (ligand)
chain: YFGKLESKLSIIRNLNDQVLFIDQGNRPLFEDMTDSDARDNAPRTIFIISMYADSQPRGMAVTISVKCEKISTLSAENKIISFKEMNPPDNIKDTKSDIIFFQRSVPGHDNKMQFESSSYEGYFLAAEKERDLFKLILKKEDELGDRSIMFTVQNED
B12: C144 (V11I, C38A, K53A, T63A, C76A, C127A) (ligand)
chain: YFGKLESKLSIIRNLNDQVLFIDQGNRPLFEDMTDSDARDNAPRTIFIISMYADSQPRGMAVAISVKCEKISTLSAENKIISFKEMNPPDNIKDTKSDIIFFQRSVPGHDNKMQFESSSYEGYFLAAEKERDLFKLILKKEDELGDRSIMFTVQNED
B13: C145 (V11I, C38A, K53A, S55A, C76A, C127A) (ligand)
chain: YFGKLESKLSIIRNLNDQVLFIDQGNRPLFEDMTDSDARDNAPRTIFIISMYADAQPRGMAVTISVKCEKISTLSAENKIISFKEMNPPDNIKDTKSDIIFFQRSVPGHDNKMQFESSSYEGYFLAAEKERDLFKLILKKEDELGDRSIMFTVQNED
B14: C146 (SEQ ID NO: 79; V11I, C38A, M51G, K53A, C76A, C127A) (ligand)
chain: YFGKLESKLSIIRNLNDQVLFIDQGNRPLFEDMTDSDARDNAPRTIFIISGYADSQPRGMAVTISVKCEKISTLSAENKIISFKEMNPPDNIKDTKSDIIFFQRSVPGHDNKMQFESSSYEGYFLAAEKERDLFKLILKKEDELGDRSIMFTVQNED
B15: C147 (V11I, C38A, K53A, D54A, C76A, C127A) (ligand)
chain: YFGKLESKLSIIRNLNDQVLFIDQGNRPLFEDMTDSDARDNAPRTIFIISMYAASQPRGMAVTISVKCEKISTLSAENKIISFKEMNPPDNIKDTKSDIIFFQRSVPGHDNKMQFESSSYEGYFLAAEKERDLFKLILKKEDELGDRSIMFTVQNED
B16: C148 (F2A, V11I, C38A, K53A, C76A, C127A) (ligand)
chain: YAGKLESKLSIIRNLNDQVLFIDQGNRPLFEDMTDSDARDNAPRTIFIISMYADSQPRGMAVTISVKCEKISTLSAENKIISFKEMNPPDNIKDTKSDIIFFQRSVPGHDNKMQFESSSYEGYFLAAEKERDLFKLILKKEDELGDRSIMFTVQNED
B17: C149 (V11I, E31A, C38A, K53A, C76A, C127A) (ligand)
chain: YFGKLESKLSIIRNLNDQVLFIDQGNRPLFADMTDSDARDNAPRTIFIISMYADSQPRGMAVTISVKCEKISTLSAENKIISFKEMNPPDNIKDTKSDIIFFQRSVPGHDNKMQFESSSYEGYFLAAEKERDLFKLILKKEDELGDRSIMFTVQNED
B18: IL-18 polypeptide SEQ ID NO: 35 (Y01G, F02A, E06K, M51G, K53A, D54A, S55A, T63A) (ligand)
chain: GAGKLKSKLSVIRNLNDQVLFIDQGNRPLFEDMTDSDCRDNAPRTIFIISGYAAAQPRGMAVAISVKCEKISTLSCENKIISFKEMNPPDNIKDTKSDIIFFQRSVPGHDNKMQFESSSYEGYFLACEKERDLFKLILKKEDELGDRSIMFTVQNED

Columns and labels:
[1] = target: T1, IL-18 receptor (IL-18Rαβ) on cells; experiment: cell-based or functional assay
[2] = target: T1, IL-18 receptor (IL-18Rαβ) on cells; experiment: cell-based or functional assay; remark: listed apart in the source

| Binder | EC50 (pM), HEK-Blue IL-18R reporter assay [1] | EC50 (nM), IFNγ induction, NK-92 cells [2] |
| --- | --- | --- |
| B1 | 0.79 pM | 0.144 nM |
| B2 | 1.77 pM | 0.0268 nM |
| B3 | 9.12 pM | 0.962 nM |
| B4 | – | 0.075 nM |
| B5 | – | 0.069 nM |
| B6 | – | 0.022 nM |
| B7 | 0.17 pM | 0.006 nM |
| B8 | 0.203 pM | 0.015 nM |
| B9 | 0.268 pM | 0.045 nM |
| B10 | 0.86 pM and 0.53 pM | 0.138 nM |
| B11 | 0.98 pM | 0.012 nM |
| B12 | 0.17 pM | 0.087 nM |
| B13 | 3.63 pM | 0.037 nM |
| B14 | 0.8 pM | 0.079 nM |
| B15 | 1 pM | 0.256 nM |
| B16 | 7.28 pM | 0.187 nM |
| B17 | 6.6 pM | 0.015 nM |
| B18 | – | > 55 nM |

— patent US20240116997A1 (BRIGHT PEAK THERAPEUTICS, published 2024)
